Results as given in patent publication US20240132578A1.
Values joined by “and” are separate entries in the source; they are usually repeats but may differ in a detail not shown here. Equal values may be shown once.

How the values were obtained:
Assay in all cases: cell-based or functional assay
[1] = target: HIV-1 Env of pseudovirus MGRM-C-26 (HIV-1)
[2] = target: HIV-1 Env of pseudovirus 92BR020 (HIV-1)
[3] = target: HIV-1 Env of pseudovirus JRCSF (HIV-1) (UniProt P20871)
[4] = target: HIV-1 Env of pseudovirus 94UG103 (HIV-1)
[5] = target: HIV-1 Env of pseudovirus 93IN905 (HIV-1)
[6] = target: HIV-1 Env of isolate MGRM-G-016 (subtype G), on pseudovirus (HIV-1)
[7] = target: HIV-1 Env of isolate MGRM-G-024 (subtype G), on pseudovirus (HIV-1)
[8] = target: HIV-1 Env of isolate MGRM-G-014 (subtype G), on pseudovirus (HIV-1)
[9] = target: aMLV envelope, on pseudovirus (negative control)
[10] = target: HIV-1 Env of isolate MGRM-G-015 (subtype G), on pseudovirus (HIV-1)
[11] = target: HIV-1 Env of isolate MGRM-G-006 (subtype G), on pseudovirus (HIV-1)
[12] = target: HIV-1 Env of isolate MGRM-G-025 (subtype G), on pseudovirus (HIV-1)
[13] = target: HIV-1 Env of isolate MGRM-G-019 (subtype G), on pseudovirus (HIV-1)
[14] = target: HIV-1 Env of isolate MGRM-G-009 (subtype G), on pseudovirus (HIV-1)
[15] = target: HIV-1 Env of isolate APV 6 (subtype B) (HIV-1)
[16] = target: HIV-1 Env of isolate MGRM-G-001 (subtype G), on pseudovirus (HIV-1)
[17] = target: HIV-1 Env of isolate MGRM-G-013 (subtype G), on pseudovirus (HIV-1)
[18] = target: HIV-1 Env of isolate MGRM-G-027 (subtype G), on pseudovirus (HIV-1)
[19] = target: HIV-1 Env of isolate MGRM-G-017 (subtype G), on pseudovirus (HIV-1)
[20] = target: HIV-1 Env of isolate MGRM-G-028 (subtype G), on pseudovirus (HIV-1)
[21] = target: HIV-1 Env of isolate MGRM-G-011 (subtype G), on pseudovirus (HIV-1)
[22] = target: HIV-1 Env of isolate MGRM-G-004 (subtype G), on pseudovirus (HIV-1)
[23] = target: HIV-1 Env of isolate 93TH305 (subtype B) (HIV-1)
[24] = target: HIV-1 JR-CSF Env R480A (HIV-1 JR-CSF) (UniProt P20871)
[25] = target: HIV-1 Env of isolate 92BR020 (subtype B) (HIV-1)
[26] = target: HIV-1 Env of isolate APV 13 (subtype B) (HIV-1)
[27] = target: HIV-1 Env of isolate 6535.3 (subtype B) (HIV-1)
[28] = target: HIV-1 Env of isolate APV_17 (subtype B) (HIV-1)

B1: Antibody of B cell culture well 4869_K15 (antibody, V domains shown)
VH: QVHLQESGPGLVTPSETLSLTCTVSNGSVSGRFWSWIRQSPGRGLEWIGYFSDTDRSEYNPSLRSRLTLSVDRSKNQLSLRLKSVTAADSATYYCARAQQGKRIYGIVSFGEFFYYYYMDAWGKGTPVTVSS
VL: SLNPLSLAPGATAKIPCGERSRGSRAVQWYQQKPGQAPTLIIYNNQDRPAGVSERFSGNPDVAIGVTATLTISRVEVGDEADYYCHYWDSRSPISWIFGGGTQLTVL
Primary Neutralization Index (B cell culture supernatant) [1]: 104
Primary Neutralization Index (B cell culture supernatant) [2]: 3.9
Primary Neutralization Index (B cell culture supernatant) [3]: 2.1
Primary Neutralization Index (B cell culture supernatant) [4]: 1.5

B2: PGT-123 (B cell culture well 4858_P8) (antibody, V domains shown)
VH: QLHLQESGPGLVKPPETLSLTCSVSGASINDAYWSWIRQSPGKRPEWVGYVHHSGDTNYNPSLKRRVTFSLDTAKNEVSLKLVDLTAADSATYFCARALHGKRIYGIVALGELFTYFYMDVWGKGTAVTVSS
VL: SSMSVSPGETAKISCGKESIGSRAVQWYQQKPGQPPSLIIYNNQDRPAGVPERFSASPDFRPGTTATLTITNVDAEDEADYYCHIYDARGGTNWVFDRGTTLTVL
Primary Neutralization Index (B cell culture supernatant) [1]: 33.8
Primary Neutralization Index (B cell culture supernatant) [2]: 2.8
Primary Neutralization Index (B cell culture supernatant) [3]: 1.6
Primary Neutralization Index (B cell culture supernatant) [4]: 1.1

B3: PGT-137 (B cell culture well 5345_I1) (antibody, V domains shown)
VH: EVHLEESGPGLVRPSETLSLTCTASGGSIRGGEWGDSDYHWGWVRHSPEKGLEWIGSIHWRGTTHYNAPFRGRGRLSIDLSRNQFSLRLTSVTAEDTAVYYCVKHKYHDIVMVVPIAGWFDPWGQGLQVTVSS
VL: EIMMTQSPAILSVSPGDRATLSCRASQSVKNNLAWYQKRPGQAPRLLIFDTSSRASGIPARFSGGGSGTEFTLTVNSMQSEDFATYYCQQYEEWPRTFGQGTKVEIK
Primary Neutralization Index (B cell culture supernatant) [5]: 3.3
Primary Neutralization Index (B cell culture supernatant) [1]: 11.3
Primary Neutralization Index (B cell culture supernatant) [3]: 1.1

B4: PGT-136 (B cell culture wells 5366_P21 and 5329_C19) (antibody, V domains shown)
VH: QLQLQESGPGLVKPSETLSLTCTVSGGSMRGTDWGENDFHYGWIRQSSAKGLEWIGSIHWRGRTTHYKTSFRSRATLSIDTSNNRFSLTFSFVTAADTAVYYCARHKYHDIFRVVPVAGWFDPWGQGLLVTVSS
VL: EIVMTQSPPTLSVSPGETATLSCRASQNVKNNLAWYQLKPGQAPRLLIFDASSRAGGIPDRFSGSGYGTDFTLTVNSVQSEDFGDYFCQQYEEWPRTFGQGTKVDIK
Primary Neutralization Index (B cell culture supernatant) [5]: 5.5 and 5.6
Primary Neutralization Index (B cell culture supernatant) [1]: 6.2 and 6
Primary Neutralization Index (B cell culture supernatant) [3]: 1.1 and 0.9

B5: PGT-128 (antibody, V domains shown)
VH: QPQLQESGPTLVEASETLSLTCAVSGDSTAACNSFWGWVRQPPGKGLEWVGSLSHCASYWNRGWTYHNPSLKSRLTLALDTPKNLVFLKLNSVTAADTATYYCARFGGEVLRYTDWPKPAWVDLWGRGTLVTVSS
VL: QSALTQPPSASGSPGQSITISCTGTSNNFVSWYQQHAGKAPKLVIYDVNKRPSGVPDRFSGSKSGNTASLTVSGLQTDDEAVYYCGSLVGNWDVIFGGGTKLTVL
IC50 (µg/mL), neutralization of pseudovirus [6]: > 50 µg/mL
IC50 (µg/mL), neutralization of pseudovirus [7]: 0.095 µg/mL
IC50 (µg/mL), neutralization of pseudovirus [8]: 0.004 µg/mL
IC50 (µg/mL), neutralization of pseudovirus [9]: > 50 µg/mL
IC50 (µg/mL), neutralization of pseudovirus [10]: > 50 µg/mL
IC50 (µg/mL), neutralization of pseudovirus [11]: > 50 µg/mL
IC50 (µg/mL), neutralization of pseudovirus [12]: 0.017 µg/mL
IC50 (µg/mL), neutralization of pseudovirus [13]: 0.01 µg/mL
IC50 (µg/mL), neutralization of pseudovirus [14]: > 50 µg/mL
IC50 (µg/mL), pseudovirus neutralization [15]: 0.007 µg/mL
IC50 (µg/mL), neutralization of pseudovirus [16]: 0.019 µg/mL
IC50 (µg/mL), neutralization of pseudovirus [17]: 0.995 µg/mL
IC50 (µg/mL), neutralization of pseudovirus [18]: 0.313 µg/mL
IC50 (µg/mL), neutralization of pseudovirus [19]: 0.319 µg/mL
IC50 (µg/mL), neutralization of pseudovirus [20]: 0.008 µg/mL
IC50 (µg/mL), neutralization of pseudovirus [21]: 8.21 µg/mL
IC50 (µg/mL), neutralization of pseudovirus [22]: > 50 µg/mL
IC50 (µg/mL), pseudovirus neutralization [23]: 0.006 µg/mL
Fold IC50 increase relative to wild-type [24]: 0.1 fold
IC50 (µg/mL), pseudovirus neutralization [25]: 0.009 µg/mL
IC50 (µg/mL), pseudovirus neutralization [26]: 0.008 µg/mL
IC50 (µg/mL), pseudovirus neutralization [27]: 0.011 µg/mL
IC50 (µg/mL), pseudovirus neutralization [28]: 0.016 µg/mL
